Measured values from US20080220446A1, “Method for Detecting and/or Removing Protein and/or Peptide Comprising a Cross-Beta Structure From an Aqueous Solution Comprising a Protein” (priority 2005, published 2008).

How the values were obtained:
BiP = molecular target: T1, BiP (Homo sapiens, UniProt P11021); assay: Affinity determination ELISA, BiP on coated (mis)folded proteins; format: binding; details: coated protein as labelled
T1 construct: made in house; host or cells: HEK293E
Excerpt: (§1) Synthetic genes of human BiP, human fibronectin finger 4,5 (Fn F4,5) fragment, and human tissue-type plasminogen activator finger EGF (tPA F-EGF) fragment were ordered from Geneart (Regensburg, Germany). These DNA constructs were digested using BamHI and NotI, and ligated into vector pABC674 (ABC-expression facility, Utrecht University, The Netherlands), which contains a carboxy-terminal FLAG-tag—His-tag. HEK293E cells were transiently transfected with these constructs using the polyethylene-imine method, and grown for 5-6 days.
(§2) Denatured proteins and their native controls BSA (Sigma, A7906), glycated BSA, Hb (Sigma, H7605), glycated Hb, ovalbumin (Sigma, A6741), heat-denatured misfolded ovalbumin, human γ-globulins (Sigma, G4386), heat-denatured misfolded γ-globulins, alkyl-γ-globulins, lysozyme (ICN Biochemicals, 100831) and alkyl-lysozyme were coated on ELISA plates (Greiner Microlon high-binding, 655092) in 50 mM NaHCO3-buffer pH 9.6. The plates were blocked using Blocking reagent (Roche 1112589). […] Bound protein is detected by the FLAG-tag using 1:3000 anti-FLAG-HRP (Sigma A-8592) in PBS-T, or by 1:1000 Ni-NTA-HRP (Qiagen 34530) in PBS-T. The HRP reaction Is performed using the TMB substrate (Biosource 4501103 or Tebu Bio 101TMB100-500), stopped using 10% H2SO4 and absorbance was measured at 450 nm.

tPA F-EGF = molecular target: T2, tPA F-EGF (Homo sapiens, UniProt P00750); assay: Affinity determination ELISA, tPA F-EGF on coated (mis)folded proteins; format: binding; details: coated protein as labelled, relative to native control
T2 construct: made in house; host or cells: HEK293E
T2 sequence (P00750 36-120 limits assumed): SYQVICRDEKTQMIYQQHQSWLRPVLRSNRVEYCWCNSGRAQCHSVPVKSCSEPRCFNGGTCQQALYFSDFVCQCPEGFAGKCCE
Excerpt: as §1, §2

T1 sequence (P11021 19-654): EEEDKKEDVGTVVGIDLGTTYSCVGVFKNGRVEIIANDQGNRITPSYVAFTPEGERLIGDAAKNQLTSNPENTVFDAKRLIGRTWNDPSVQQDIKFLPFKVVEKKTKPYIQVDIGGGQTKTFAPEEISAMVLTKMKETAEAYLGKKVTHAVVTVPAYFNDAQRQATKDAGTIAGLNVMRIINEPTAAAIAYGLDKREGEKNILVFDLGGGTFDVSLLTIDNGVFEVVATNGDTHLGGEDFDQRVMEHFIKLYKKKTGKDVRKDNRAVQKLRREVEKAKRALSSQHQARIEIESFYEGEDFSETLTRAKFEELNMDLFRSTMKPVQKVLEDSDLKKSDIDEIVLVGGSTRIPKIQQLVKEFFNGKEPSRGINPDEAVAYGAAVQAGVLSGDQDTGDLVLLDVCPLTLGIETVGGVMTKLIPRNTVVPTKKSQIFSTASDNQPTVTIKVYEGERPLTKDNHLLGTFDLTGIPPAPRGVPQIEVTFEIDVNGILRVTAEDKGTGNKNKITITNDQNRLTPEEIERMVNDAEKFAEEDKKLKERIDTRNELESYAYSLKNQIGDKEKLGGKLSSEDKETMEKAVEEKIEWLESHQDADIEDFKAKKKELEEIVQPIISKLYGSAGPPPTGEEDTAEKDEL

binding of BiP (BiP): high affinity
binding of tPA F-EGF (tPA F-EGF): High binding affinities
Substance: albumin-AGE: advanced glycation end-product modified bovine serum albumin
